The source of these data is US20190300590A1 (PROTAGONIST THERAPEUTICS, published 2019).

Where two headings read alike, the source gives them in different places. *1 amine or outer side, *2 acyl side, *3 side chain or, on linkers, in order; H or OH if unused. Bridges are numbered along the chain shown (N, C = ends). Primed or numbered codes have the meaning given here. [ ]: non-standard residue; d: D form. Phe(4-OMe)(3) = O-methyl-L-tyrosine (4-methoxy-L-phenylalanine), COc1ccc(C[C@H](N[*:1])C(=O)[*:2])cc1; Phe(4-Oallyl) = 4-allyloxy-phenylalanine (O-allyl-tyrosine), C=CCOc1ccc(C[C@H](N[*:1])C(=O)[*:2])cc1; Phe(4-OMe) = 4-methoxy-L-phenylalanine (O-methyl-L-tyrosine), COc1ccc(C[C@H](N[*:1])C(=O)[*:2])cc1; Phe(4-OMe)(4) = O-methyl-L-tyrosine, COc1ccc(C[C@H](N[*:1])C(=O)[*:2])cc1; Phe(3,4-Cl2) = N[C@@H](Cc1ccc(Cl)c(Cl)c1)C(=O)O; Phe(4-CONH2) = NC(=O)c1ccc(C[C@H](N)C(=O)O)cc1; Tyr(Ph) = N[C@@H](Cc1ccc(Oc2ccccc2)cc1)C(=O)O; 1Nal = N[C@@H](Cc1cccc2ccccc12)C(=O)O; 2Nal = N[C@@H](Cc1ccc2ccccc2c1)C(=O)O; AEF = NCCOc1ccc(C[C@H](N)C(=O)O)cc1; pGlu = O=C1CC[C@@H](C(=O)O)N1; αMeOrn = C[C@](N)(CCCN)C(=O)O; αMeK = C[C@](N)(CCCCN)C(=O)O; Orn = NCCC[C@H](N)C(=O)O; Abu = CC[C@H](N)C(=O)O; Dap = NC[C@H](N)C(=O)O; Aib = CC(C)(N)C(=O)O

The target in assay [1] is T1, IL23R_huFC (human, UniProt Q5VWK5 24-353).
T1 sequence (looked up): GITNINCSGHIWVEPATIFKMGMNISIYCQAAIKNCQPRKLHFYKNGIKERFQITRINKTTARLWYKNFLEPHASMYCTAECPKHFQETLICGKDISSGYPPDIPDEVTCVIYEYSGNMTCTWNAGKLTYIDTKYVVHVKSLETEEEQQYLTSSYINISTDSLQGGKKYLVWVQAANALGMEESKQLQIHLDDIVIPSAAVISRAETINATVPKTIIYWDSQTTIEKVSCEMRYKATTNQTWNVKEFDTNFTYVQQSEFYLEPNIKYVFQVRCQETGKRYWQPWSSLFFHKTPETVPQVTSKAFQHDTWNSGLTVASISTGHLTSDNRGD
In words: human ELISA vs IL-23. A general note: In an ELISA, binding on a coated surface is turned into a signal by an enzyme label.

Assay [2] deals with T1, IL23R_huFC. In words: human ELISA vs IL-23. This is another data set of the same source.
Assay [3] deals with T2, IL-23R on human cells (IL-23R-expressing DB cells; human NK cells) (human, UniProt Q5VWK5 24-629).
T2 sequence (looked up): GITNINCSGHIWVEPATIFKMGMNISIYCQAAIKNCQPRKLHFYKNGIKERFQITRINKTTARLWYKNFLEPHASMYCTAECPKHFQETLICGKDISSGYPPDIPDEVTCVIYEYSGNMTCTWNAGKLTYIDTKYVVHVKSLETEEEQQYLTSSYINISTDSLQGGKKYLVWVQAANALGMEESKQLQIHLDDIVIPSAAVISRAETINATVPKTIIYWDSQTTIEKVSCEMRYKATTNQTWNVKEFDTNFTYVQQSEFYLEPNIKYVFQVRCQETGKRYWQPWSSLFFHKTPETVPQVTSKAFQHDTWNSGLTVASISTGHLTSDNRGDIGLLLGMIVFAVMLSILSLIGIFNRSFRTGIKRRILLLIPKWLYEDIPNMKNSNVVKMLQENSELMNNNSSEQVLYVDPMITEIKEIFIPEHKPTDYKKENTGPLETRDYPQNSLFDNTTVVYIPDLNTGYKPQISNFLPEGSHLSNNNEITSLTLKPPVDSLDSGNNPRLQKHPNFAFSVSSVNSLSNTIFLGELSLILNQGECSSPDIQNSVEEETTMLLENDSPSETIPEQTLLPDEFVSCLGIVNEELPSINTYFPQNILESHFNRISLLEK
Nature of the assay: cell-based or functional assay.

In assay [4] the target is Rat IL-23R_huFC (rat). In words: rat ELISA vs IL-23.

By IC50 is commonly meant the midpoint of a concentration-inhibition curve. Low readings indicate greater potency, high ones weaker potency. Ac-[Abu]QTWQC[AEF][Phe(4-CONH2)][αMeK]K(Ac)NG-NH2 (thioether 1-6) [Ac-Cyclo-[[Abu]-QTWQC]-[Phe[4-(2-aminoethoxy)]]-[Phe(4-CONH2)]-[α-MeLys]-[Lys(Ac)]-NG-NH2] yielded an IC50 in assay [1] of 100 to 1000 nM.
Take Ac-[Abu]QTWQC[Phe(4-OMe)(3)][Phe(4-Oallyl)][αMeK]ENG-NH2 (thioether 1-6) [Ac-Cyclo-[[Abu]-QTWQC]-[Phe(4-OMe)]-[Phe(4-Oallyl)]-[α-MeLys]-ENG-NH2]: the IC50 in assay [1] lay within 100 to 1000 nM.
Same read-out and setting: the figure for Ac-[Abu][Dap]TWQC[AEF][Tyr(Ph)][αMeK]K(Ac)NG-NH2 (thioether 1-6) [Ac-Cyclo-[[Abu]-[Dap]-TWQC]-[Phe[4-(2-aminoethoxy)]]-[Phe(4-Phenoxy)]-[α-MeLys]-[Lys(Ac)]-NG-NH2] is 100 to 1000 nM.
Ac-[Abu]QTWQC[AEF]W[Orn][Dap](Ac)NG-NH2 (thioether 1-6) [Ac-Cyclo-[[Abu]-QTWQC]-[Phe[4-(2-aminoethoxy)]]-W-[Orn]-[Dap(Ac)]-NG-NH2] displayed an IC50 in assay [1] of 100 to 1000 nM.
Still for that read-out and setting: the figure for Ac-[Abu]QTWQC[Phe(4-OMe)]W[αMeK]K(Ac)NGE-NH2 (thioether 1-6) [Ac-Cyclo-[[Abu]-QTWQC]-[Phe(4-OMe)]-W-[α-MeLys]-[Lys(Ac)]-NGE-NH2] is 100 to 1000 nM; for Ac-[Abu]QTWQC[AEF]W[Orn][Dap]NG-NH2 (thioether 1-6) [Ac-Cyclo-[[Abu]-QTWQC]-[Phe[4-(2-aminoethoxy)]]-W-[Orn]-[Dap]-NG-NH2] it is 100 to 1000 nM.
Consider Ac-[Abu]QTWQC[AEF][2Nal][αMeK][Dap](pGlu)NG-NH2 (thioether 1-6) [Ac-Cyclo-[[Abu]-QTWQC]-[Phe[4-(2-aminoethoxy)]]-[2-Nal]-[α-MeLys]-[Dap(pyroglutamic acid)]-NG-NH2], for which, in assay [2], the IC50 lay within 10 to 25 nM. Further, in assay [3], the “pStat3 HTRF IC50” value is less than 10 nM.
Turning to XQTWQCFWXENG (as bracketed in name; thioether cyclo) [Ac-Cyclo-[[Abu]-QTWQC]-[Phe[4-(2-aminoethoxy)]]-W-[α-Me-Orn]-ENG-NH2], the IC50 in assay [2] is 10 to 25 nM. Also, the “pStat3 HTRF IC50” value in assay [3] was less than 10 nM.
For the molecule Ac-[Abu]QTWQC[Phe(4-OMe)][2Nal][Aib]K(Ac)NG-NH2 (thioether 1-6) [Ac-Cyclo-[[Abu]-QTWQC]-[Phe(4-OMe)]-[2-Nal]-[Aib]-[Lys(Ac)]-NG-NH2], the IC50 lay within 10 to 25 nM in assay [2] and 25 to 100 nM in assay [4]. The “pStat3 HTRF IC50” value in assay [3] was less than 10 nM.
Regarding XQTWQCFXXKNG (as bracketed in name; thioether cyclo) [Ac-Cyclo-[[Abu]-QTWQC]-[Phe(4-OMe)]-[2-Nal]-[Orn]-[Lys(Ac)]-NG-NH2], the IC50 in assay [1] lay in the range of 100 to 1000 nM.
The molecule Ac-[Abu]QTWQC[AEF][2Nal][Aib]K(Ac)QG-NH2 (thioether 1-6) [Ac-Cyclo-[[Abu]-QTWQC]-[Phe[4-(2-aminoethoxy)]]-[2-Nal]-[Aib]-[Lys(Ac)]-QG-NH2] gave an IC50 in assay [2] of 10 to 25 nM. Besides, in assay [3], the “pStat3 HTRF IC50” value is less than 10 nM.
With XQTWQCFXXKNG (as bracketed in name; thioether cyclo) [Ac-Cyclo-[[Abu]-QTWQC]-[Phe[4-(2-aminoethoxy)]]-[2-Nal]-[Orn]-[Lys(Ac)]-NG-NH2], the IC50 in assay [2] was in the range of 10 to 25 nM.
As to Ac-[Abu]QTWQC[AEF][2Nal][Aib]EK(Ac)G-NH2 (thioether 1-6) [Ac-Cyclo-[[Abu]-QTWQC]-[Phe[4-(2-aminoethoxy)]]-[2-Nal]-[Aib]-E-[Lys(Ac)]-G-NH2], the IC50 in assay [2] is 10 to 25 nM. The “pStat3 HTRF IC50” value in assay [3] was less than 10 nM.
Consider Ac-[Abu]QTWQC[Phe(3,4-Cl2)][2Nal][αMeK]K(Ac)NG-NH2 (thioether 1-6) [Ac-Cyclo-[[Abu]-QTWQC]-Phe(3,4-Cl2)[2-Nal][α-MeLys]-Lys(Ac)]NG-NH2], for which, in assay [1], the IC50 is 100 to 1000 nM.
On to Ac-[Abu]QTWQC[Tyr(Ph)][2Nal][αMeK]K(Ac)NG-NH2 (thioether 1-6) [Ac-Cyclo-[[Abu]-QTWQC]-[Phe(4-Phenoxy)]-[2-Nal][α-MeLys]-[Lys(Ac)]-NG-NH2], for which the IC50 in assay [1] lay in the range of 100 to 1000 nM.
Ac-[Abu]QT[1Nal]QC[Phe(4-OMe)(4)][2Nal][αMeK]K(Ac)NG-NH2 (thioether 1-6) [Ac-Cyclo-[[Abu]-QT-[1-Nal]-QC]-[Phe(4-OMe)]-[2-Nal]-[α-MeLys]-[Lys(Ac)]-NG-NH2] had an IC50 in assay [1] of 100 to 1000 nM.
On to Ac-[Abu]QTWQC[AEF]W[Aib]ENN-NH2 (thioether 1-6) [Ac-Cyclo-[[Abu]-QTWQC]-[Phe[4-(2-aminoethoxy)]]-W-[Aib]-ENN-NH2], for which the IC50 in assay [2] was in the range of 10 to 25 nM. Further, the “pStat3 HTRF IC50” value in assay [3] is less than 10 nM.
Molecule Ac-[Abu]QTWQC[AEF]W[αMeOrn]K(Ac)NG-NH2 (thioether 1-6) [Ac-Cyclo-[[Abu]-QTWQC]-[Phe[4-(2-aminoethoxy)]]-W-[α-Me-Orn]-[Lys(Ac)]-NG-NH2] came in with an IC50 in assay [2] of 10 to 25 nM.
